Primed or numbered codes have the meaning given here. Ac′ = acetamide linker; CoA = coenzyme A

One test concerns the target T1, Naa80 (Homo sapiens, UniProt Q93015).
T1 construct: The PCR product containing the CDS was inserted into the TOPO TA vector; made in house; host or cells: E. coli BL21 Star (DE3)
T1 sequence (Q93015 1-308 isoform Q93015-2): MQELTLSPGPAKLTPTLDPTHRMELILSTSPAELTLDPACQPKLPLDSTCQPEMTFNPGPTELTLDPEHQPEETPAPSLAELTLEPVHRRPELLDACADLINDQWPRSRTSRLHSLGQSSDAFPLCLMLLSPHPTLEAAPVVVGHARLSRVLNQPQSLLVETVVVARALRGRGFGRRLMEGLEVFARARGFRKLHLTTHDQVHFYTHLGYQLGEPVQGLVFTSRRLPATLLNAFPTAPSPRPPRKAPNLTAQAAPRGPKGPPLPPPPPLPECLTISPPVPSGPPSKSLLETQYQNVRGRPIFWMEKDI
The test is described as follows: Nt-acetylation inhibitor assay for Naa80. Type of test: biochemical. To be noted: Naa80. The protocol:
FIG. 10: (A) IC50 values for inhibitors measured in an Nt-acetylation inhibitor assay for Naa80. (B) Ki-values for CoA-Ac-DDDI-NH2 (SEQ ID NO: 6) for different human NATs measured in an Nt-acetylation inhibitor assay. All reactions were performed at least three times and in triplicate; errors bars represent standard deviation of each measurement.
The IC50 values for these compounds were tested as described in Foyn H, et al. (2013) “Design, Synthesis, and Kinetic Characterization of Protein N-Terminal Acetyltransferase Inhibitors”. ACS Chem Biol 8:1121-1127; and Foyn H, et al. (2017) “DTNB-Based quantification of in vitro enzymatic N-terminal acetyltransferase activity”, Methods Mol. Biol. 1574:9-15. Briefly, a colorimetric acetylation assay, 5,5′-dithiobis-(2-nitrobenzoic acid) (DTNB) assay was used to measure the catalytic activity of NATs after incubation with NAT inhibitors. In the DTNB assay, thiols present in the enzymatic product, CoA, cleaves DTNB and produces 2-nitro-5-thiobenzoate (NTB-), which absorbs light with a wavelength of 412 nm. NTB- forms in a 1:1 molar ratio to the thiol groups present in the sample. Therefore, NTB- was quantified by measuring the absorbance at 412 nm and indirectly measures peptide Nt-acetylation. […] After 30 min-60 min incubation at 37° C., the enzyme activity was quenched with quenching buffer (3.2 M guanidinium-HCl, 100 mM sodium phosphate dibasic pH 6.8). Triplicates were run for all positive samples, while negative controls were duplicated. As a negative control, reactions without enzyme were incubated at 37° C. before the reaction was quenched and added enzyme. In order to measure CoA production, 2 mM DTNB (dissolved in 100 mM sodium phosphate dibasic pH 6.8 and 10 mM EDTA) was added to the quenched reaction and the absorbance at 412 nm was measured with a spectrophotometer (Epoc). Background absorbance (determined in negative controls) was subtracted from the absorbance determined in each individual reaction. Thiophenolate production was quantified assuming ε=13.7×103 M−1 cm−1. For NatA and NatB enzyme complex inhibition, immunoprecipitation was performed using Naa15 ab (custom made, Arnesen T, Anderson D, Baldersheim C, Lanotte M, Varhaug J E, Lillehaug J R. (2005) Identification and characterization of the human ARD1-NATH protein acetyltransferase complex. Biochemical J 386(Pt 3):433-43.) or Naa20 ab (Nat5, abnova) respectively and protein A/G magnetic agarose beads (Millipore). A similar Nt-acetylation reaction was performed as previously described and the enzymatic activity was quenched with a final concentration of 1% TFA and analyzed by HPLC (Evjenth R, Van Damme P, Gevaert K, Arnesen T (2013) HPLC-based Quantification of in vitro N-terminal Acetylation. Methods Mol Biol 981:95-102.).
We then pursued Naa80 bisubstrate analogue inhibitors based on the results of the substrate screening and the sequences of the cellular substrates processed β- and γ-actin. We synthesized bisubstrate conjugates of Coenzyme A coupled to the tetrapeptides MDEL-NH2 (SEQ ID NO: 8), DDDI-NH2 (SEQ ID NO: 6), EEEI-NH2 (SEQ
ID NO: 7), and MLGT-NH2 (SEQ ID NO: 52) via an acetamide (Ac) linker.
The following additional Naa80 bisubstrate analogue inhibitors were produced and tested as described above: […]
`CC(C)C[C@H](NC(=O)[C@H](CCC(=O)O)NC(=O)[C@H](CCC(=O)O)NC(=O)[C@H](CCC(=O)O)NC(=O)CSCCNC(=O)CCNC(=O)C(O)C(C)(C)COP(=O)(O)OP(=O)(O)OCC1OC(n2cnc3c(N)ncnc32)C(O)C1OP(=O)(O)O)C(N)=O` (some centres unmarked) [EEEL] showed an IC50 of 1.16 µM.

Still in this test, the particulars now being: at the highest concentration tested of 1000 μM.
As to CoA-Ac-MLGT-NH2 ({CoA-Ac′}-MLGT-NH2), the “inhibition of Naa80” value is recorded as “did not show detectable inhibition”.

Another test deals with T1, Naa80. The test is described as follows: Naa80 substrate screening assay (peptide acetylation by purified Naa80). The settings on record: Naa80 mediated acetylation of 24-mer peptide substrates. The format is biochemical. An excerpt: In order to investigate the in vitro activity of Naa80 further, an enzyme activity screening assay on purified Naa80 was undertaken using a broad substrate library (including amino acids, nucleosides, coenzymes, amines, saccharides, vitamins, antioxidants and peptides) modified from Kuhn et al. (Kuhn et al. (2013) “Broad-substrate screen as a tool to identify substrates for bacterial Gcn5-related N-acetyltransferases with unknown substrate specificity”. Protein Science 22(2):222-230). Among all of the potential substrates tested, only the peptides with N-terminal sequence of MDEL24 (SEQ ID NO: 45), DDDI24 (SEQ ID NO: 41) and EEEI24 (SEQ ID NO: 40) were acetylated, as shown in the following table:
The 24-mer substrate peptides differed in their 7 N-terminal amino acids while the 17 C-terminal residues (RWGRPVGRRRRPVRVYP, SEQ ID NO: 39) were kept constant: EEEI24 (EEEIAAL, SEQ ID NO: 40), DDDI24 (DDDIAAL, SEQ ID NO: 41), MDDD24 (MDDDIAA, SEQ ID NO: 42), SESS24 (SESSSKS, SEQ ID NO: 43), AVFA24 (AVFADLD, SEQ ID NO: 44), MDEL24 (MDELFPL, SEQ ID NO: 45), MELL24 (MELLSPP, SEQ ID NO: 46), MLGT24 (MLGTGPA, SEQ ID NO: 47), MTNK24 (MTNKSSL, SEQ ID NO: 48), MLGP24 (MLGPEGG, SEQ ID NO: 49), MAPL24 (MAPLDLD, SEQ ID NO: 50), MKKS24 (MKKSYSG, SEQ ID NO: 51).
Both MDEL (p65, SEQ ID NO: 8) and MDDD24 (unprocessed β-actin, SEQ ID NO: 42) represent cellular NatB substrates.
Consider “DDDI24: 24-mer substrate peptide: N-terminal DDDIAAL (SEQ ID NO: 41) plus constant RWGRPVGRRRRPVRVYP (DDDIAALRWGRPVGRRRRPVRVYP)”, for which the Product formation is given as 50.5 (±1.0) μM.
Same read-out and setting: then “MAPL24: 24-mer substrate peptide: N-terminal MAPLDLD (SEQ ID NO: 50) plus constant RWGRPVGRRRRPVRVYP (MAPLDLDRWGRPVGRRRRPVRVYP)”, with 2.28 (±0.61) μM.
Consider “MTNK24: 24-mer substrate peptide: N-terminal MTNKSSL (SEQ ID NO: 48) plus constant RWGRPVGRRRRPVRVYP (MTNKSSLRWGRPVGRRRRPVRVYP)”, for which the Product formation was −4.25 (±1.75) μM.
The same measure, in the same setting: as for “SESS24: 24-mer substrate peptide: N-terminal SESSSKS (SEQ ID NO: 43) plus constant RWGRPVGRRRRPVRVYP (SESSSKSRWGRPVGRRRRPVRVYP)”, the figure is 1.14 (±3.35) μM; as for “EEEI24: 24-mer substrate peptide: N-terminal EEEIAAL (SEQ ID NO: 40) plus constant RWGRPVGRRRRPVRVYP (EEEIAALRWGRPVGRRRRPVRVYP)”, 42.4 (±0.95) μM.
On to “MELL24: 24-mer substrate peptide: N-terminal MELLSPP (SEQ ID NO: 46) plus constant RWGRPVGRRRRPVRVYP (MELLSPPRWGRPVGRRRRPVRVYP)”, for which the Product formation is given as 2.15 (±0.40) μM.
In the case of “AVFA24: 24-mer substrate peptide: N-terminal AVFADLD (SEQ ID NO: 44) plus constant RWGRPVGRRRRPVRVYP (AVFADLDRWGRPVGRRRRPVRVYP)”, the Product formation is recorded as −0.96 (±0.84) μM.
For “MKKS24: 24-mer substrate peptide: N-terminal MKKSYSG (SEQ ID NO: 51) plus constant RWGRPVGRRRRPVRVYP (MKKSYSGRWGRPVGRRRRPVRVYP)”, the Product formation is recorded as 3.37 (±1.71) μM.
Same read-out and setting: then “MLGP24: 24-mer substrate peptide: N-terminal MLGPEGG (SEQ ID NO: 49) plus constant RWGRPVGRRRRPVRVYP (MLGPEGGRWGRPVGRRRRPVRVYP)”, with 2.06 (±1.49) μM.

By IC50 is commonly meant the concentration needed to halve the response being measured.
